{"source": "patent US20080201790A1", "about": "“Method and product for regulating cell responsiveness to external signals” (priority 1993, published 2008)", "key": {"[1]": {"test_system": "JNK/SAPK", "assay": "JNK/SAPK activity in Swiss 3T3 clones with inducible MEKKCOOH", "format": "cell-based", "conditions": "17 hours IPTG induction", "protocol": "JNK/SAPK: Activity was measured using GST (glutathione S-transferase)—c-Jun (1-79) BOUND to glutathione-Sepharose-4B (Hibi et al. supra). Cells expressing MEKKCOOH or control cells were lysed in 0.5% Nonidet P40 (NP40), 20 mM Tris-HCl, pH 7.6, 0.25 NaCl, 3 mM EDTA, 3 mM EGTA, 1 mM dithiothreitol, 1 mM phenylmethylsulfonyl fluoride, 2 mM sodium vanadate, 20 μg/ml aprotinin and 5 μg/ml leupeptin. Lysates were centrifuged at 15,000×g for 10 min to remove nuclei and supernatants (25 μg protein) mixed with 10 μl of GST-c-JUN(1-79)-Sepharose (3-5 μg of GST-c-Jun(1-79)). The mixture was rotated at 4° C. for 1 hr, washed 2× in lysis buffer and 1× in kinase buffer (20 mM Hepes, pH 7.5, 10 mM MgCl2, 20 mM β-glycerophosphate, 10 mM p-nitrophenyl phosphate, 1 mM dithiothreitol, 50 μM sodium vanadate). Beads were suspended in 40 μl of kinase buffer with 10 μCi Of [γ^32P] ATP and incubated at 30° C. for 20 min. Samples were boiled in Laemmli buffer and phosphorylated proteins resolved on SDS/10% polyacrylamide gels. To verify the selectivity of the JNK/SAPK assay cell lysates were fractionated by Mono Q ion exchange chromatography and each fraction assayed as described above. Fractions were also immunoblotted with a rabbit antisera recognizing JNK/SAPK. […]"}, "[2]": {"test_system": "p38/Hog1", "assay": "p38/Hog1 activity in Swiss 3T3 clones with inducible MEKKCOOH", "format": "cell-based", "conditions": "17 hours IPTG induction"}, "[3]": {"test_system": "GST-Ras^V12", "assay": "Binding of COS cell-expressed MEKK1 proteins to GST-Ras^V12 agarose", "conditions": "COS cell lysates, immunoblot", "description": "COS cells were transiently transfected by the DEAE-dextran protocol as generally described in Example 3. Cos cells were transfected with: (1) p-MEKK1 containing a nucleic acid molecule encoding MEKK1 as described in Lange-Carter et al. (Science 260:315-319, […]); (2) p-MEKKNH2 containing a nucleic acid molecule that encodes a 858 base pair Pvull(682)-Ncol(1541) restriction digest fragment of the amino terminus of MEKK1 ligated into pCMV5; (3) p-MEKKCOOH containing a nucleic acid molecule that encodes a 1435 base pair Ncol(1541)-Sspl(2976) restriction digest fragment that includes the entire kinase domain of MEKK1 ligated into pCMV5; (4) pCMV5 without insert; or (5) p-C4Raf containing a nucleic acid molecule that encodes the amino terminus of Raf-1 ligated into pCMV5. COS cells expressing the various MEKK1 proteins were […] COS cells expressing the various MEKK1 proteins were lysed in EB (1% Triton X-100, 10 mM Tris HCl [pH 7.4], 5 mM EDTA, 50 mM NaCl, 50 mM NaF, 0.1% bovine serum albumin, 0.2 U/ml aprotinin, 1 mM phenylmethylsulfonyl fluoride and 2 mM Na3 VO4). The lysates were separated into two equal parts for separate binding reactions. Half of the lysate was incubated with GST agarose (1.5 μg) while half of the lysate was incubated with GST-Ras^V12 agarose (1.5 μg) (purchased from UBI) for 1 hr at 4° C. The GST-Ras^V12 was preincubated at 30° C. for 30 min with 1 mM nucleotide (GDP or GTPγS). The nucleotide binding reaction was stopped by adding MgCl2 to a final concentration of 20 mM. After the 1 hr binding reaction the agarose beads were pelleted at 2000 rpm for 2 min and washed 3 times with PBS+1.0% Triton X-100. The washed agarose beads were boiled in Laemmli SDS sample buffer and the proteins resolved by SDS polyacrylamide gel electrophoresis. Proteins were transferred onto nitrocellulose for immunoblotting with antibodies specific for an NH2 terminal fusion protein (described in Example 1) or a COOH terminal peptide (described in Example 1)."}}}
{"molecule": "MEKKCOOH: a truncated activated form of MEKK1 including the entire kinase domain (protein) MAMSASQDALPIVPQLQVENGEDIIIIQQDTPETLPGHTKAKQPYREDAEWLKGQQIGLGAFSSCYQAQDVGTGTLMAVKQVTYVRNTSSEQEEVVEALREEIRMMGHLNHPNIIRMLGATCEKSNYNLFIEWMAGGSVAHLLSKYGAFKESVVINYTEQLLRGLSYLHENQIIHRDVKGANLLIDSTGQRLRIADFGAAARLASKGTGAGEFQGQLLGTIAFMAPEVLRGQQYGRSCDVWSVGCAIIEMACAKPPWNAEKHSNHLALIFKIASATTAPSIPSHLSPGLRDVAVRCLELQPQDRPPSRELLKHPVFRTTW", "values": [{"measurement": "JNK/SAPK activity", "setting": "[1]", "result": "stimulated JNK/SAPK activity"}, {"measurement": "p38/Hog1 activity", "setting": "[2]", "result": "did not activate either ERK or p38/Hog1 activity"}, {"measurement": "binding to GST-Ras^V12 (in words)", "setting": "[3]", "result": "bound to GST-Ras^V12 in a GTP dependent manner"}]}
